The supplement of paper PMC9170038

Test system: MS2 coat protein
Assay: apparent KD of MS2 coat protein; designed switch direction (-1 OFF switch, 1 ON switch): -1; higher = weaker reporter binding
In short: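 Designed RNA switches with common flanks were transcribed on Illumina chips by stalled E. coli RNA polymerase and titrated with SNAP-549-labelled MS2 coat protein, from 0.7 or 1.5 nM doubling to 3 µM, in Tris-HCl pH 7.5 buffer with KCl, MgCl2, BSA, DTT, tRNA and Tween-20. Steps lasted 0.8–1.5 h (lowest) to 10–20 min (highest). Titrations ran without input, with 200 uM small-molecule ligand, or with an oligonucleotide input. Normalised cluster fluorescence was curve-fitted, and apparent KD is the per-design median over clusters.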

[1] = input ligand: microRNA oligo, concentration not stated
[2] = Eterna round: R95, input ligand: FMN 200 uM
[3] = Eterna round: R95, input ligand: microRNA oligo, concentration not stated
[4] = Eterna round: R95, input ligand: none

Row | Sequence | apparent KD of MS2 coat protein (input ligand: FMN 200 uM) | apparent KD of MS2 coat protein (input ligand: none) | apparent KD of MS2 coat protein [3] | other results
1 | CGUCUGUAAGGAUAUGGUUACAUAGACAUGAGGAUCACCCAUGUGACGUGGGACUAGUGAUUAGAAGGUACGAACG [EX5 #66] (Eterna round: R97, puzzle: Exclusion 5) | 0.077 µM | 0.0786 µM | – | –
2 | UCACGGGAUUGAGGAUAUAUAUUAAUUUUUACAAUAGAAGGCAAAUUGUUAGAUUAUUCACUAUACAUGAGGAUCACCCAUGUU [JR_ExcBG1_Sub078] (Eterna round: R96, puzzle: Exclusion NG 1) | – | – | – | apparent KD of MS2 coat protein [1]: 0.0176 µM
3 | CAAGAUUACUGAGGAUAUCCUAGUUUAUCUCAGGGAGAAGGCGGACUCAACAUGAGGAUCACCCAUGUAAGACGGGUACUAGAG [Ex NG1 #15] (Eterna round: R96, puzzle: Exclusion NG 1) | 0.0848 µM | 0.0432 µM | – | apparent KD of MS2 coat protein [1]: 0.0684 µM
4 | AAAUAAAAACAAGCAAAACACAUGAGGAUCACCCAUGUAAAGGGUGAAGUUCGCACCCAAAAAUAAAAUAAAUAAAA [another turnoff var 1st] (Eterna round: R96, puzzle: Sensor v2, turn-off variant) | 0.0267 µM | 0.0249 µM | – | apparent KD of MS2 coat protein [1]: 0.0298 µM
5 | GUACUGAGGCUUUGCUUUAGUCGUACAUGAGGAUCACCCAUGUAGGAUAUGGUAGGCUUUGCUUACCAGAAGGACAGAGUGAUC [JL EXNG3 1.22] (Eterna round: R96, puzzle: Exclusion NG 3) | – | – | – | apparent KD of MS2 coat protein [1]: 0.188 µM
6 | CGCUGGACAGGAUAUGUUCUUGGGCACUUGAGGAUCACCCAAGUCAUCAAGAAAUCAGGCACAGAAGGGUUUAUGG [salish99_ex5_r4_021] (Eterna round: R97, puzzle: Exclusion 5) | 0.0187 µM | 0.0199 µM | – | –
7 | GUGCGACAUGAGGAUCACCCAUGUCAGGAUAUAUAGAACGAUAACGAAAUCGUUAUCGGUAGAAGGGACGGUGA [Eternabot (L1) Solution 48] (Eterna round: R97, puzzle: Exclusion 1) | 0.0186 µM | 0.0214 µM | – | –
8 | CAGUACUGAGGAUAUACAUGAGGAUCACCCAUGUGUUCCUGCUAGGAAACUAGCAAAGGUAGAAGGCAGUACUG [Salish 065 m3] (Eterna round: R97, puzzle: Exclusion 3) | 0.464 µM | 0.0279 µM | – | –
9 | AAUUAGCUAGGAUAUACAUGAGGAUCACCCAUGUCAGUUACAUGGCCGGGUGUAACGAGUAGAAGGAGCGCCAA [EX3 B.28] (Eterna round: R97, puzzle: Exclusion 3) | 0.175 µM | 0.513 µM | – | –
10 | GUCGUGUUAGGAUAUUGGCCUUUUAGAUGCACUAAGUGAGACGAGAAGGGACAUGAGGAUCACCCAUGUAAUAA [Eternabot (L1) Solution 69] (Eterna round: R97, puzzle: Exclusion 4) | 0.0474 µM | 0.0364 µM | – | –
11 | AGUAGAUCUACGCUUGCGUGGAUCUGCGAGGCAGGUGUAACAUGAGGAUCACCCAUGUCCUCAUUUGUUCGUCUUAU [JL turnoff v2 99.19] (puzzle: Sensor v3, turn-off variant 2) | – | – | 0.377 µM | apparent KD of MS2 coat protein [2]: 0.379 µM; apparent KD of MS2 coat protein [4]: 0.477 µM
12 | GUCCUACAUGAGGAUCACCCAUGUAAGGAUAUGCUAGCGGUCGGAAGACUGACUGCUAGCAGAAGGUACAUGAU [Mat - Mod of JL D79] (puzzle: Exclusion 1) | – | – | 0.0139 µM | –
13 | GGUAGAGAGCAGGAUAUCUUGGGUAAGUAUCGUAGAGAAGGGCUCACAUGAGGAUCACCCAUGUGGUCCAAGAU [JL Dibiri mod 05] (puzzle: Exclusion 6) | – | – | 0.0142 µM | –
14 | AAAUAACAAGCGAGAUCCUACAUGAGGAUCACCCAUGUGCUCGUCUUAACAAGUACUAUCACGAAAGUGAUAGUACA [Mat - Sensor v3 - turn-off var 1 - Eli Mod - D69] (puzzle: Sensor v3, turn-off variant 1) | – | – | 0.0594 µM | apparent KD of MS2 coat protein [2]: 0.0175 µM; apparent KD of MS2 coat protein [4]: 0.0121 µM
15 | AUGAGGUUAGGAUAUACAUGAGGAUCACCCAUGUUGAAAGGAUAGAUAAGAAAAGAUAGUAGAAGGAACAAAGA [JR_Exclu3_Sub052] (puzzle: Exclusion 3) | – | – | 0.0349 µM | apparent KD of MS2 coat protein [2]: 0.0344 µM; apparent KD of MS2 coat protein [4]: 0.0392 µM
16 | AAUCUGUGAGGAUAUGGUGAGUAGUGCCUGAGCGCUGCUCACCAGAAGGCACAUGAGGAUCACCCAUGUAUGAA [Mat - Exclusion 4 - Mod of JL - D3] (puzzle: Exclusion 4) | – | – | 0.028 µM | –
17 | GGCACACAUGAGGAUCACCCAUGUCAGGAUAUGUGGCGAUCGUCGAUAGACGAUAGCCACAGAAGGGACAGGCC [Mat - Exclusion 1 - Eli Mod - D22] (Eterna round: R97, puzzle: Exclusion 1) | 0.11 µM | 0.0699 µM | – | –
18 | GUUAAGUGAGGAUAUGGUGAGUAGUGCCAGAGCGCUGCUCACCAGAAGGCACAUGAGGAUCACCCAUGUAUAGC [Mat - Exclusion 4 - Mod of JL - D15] (puzzle: Exclusion 4) | – | – | 0.013 µM | –

Row | Sequence | apparent KD of MS2 coat protein (input ligand: FMN 200 uM) | apparent KD of MS2 coat protein (input ligand: none) | apparent KD of MS2 coat protein [3] | other results
19 | UUUUAACAUGAGGAUCACCCAUGUGAGGAUAUCGAAAUUUAUAUUUAUAUUAAUAUAUCGAGAAGGCACAUUUU [JMF 80] (puzzle: Exclusion 1) | – | – | 0.0931 µM | –
20 | GCUAUGCAAGGAUAUACAAGAUUAUGACAAGCGUGGAAACGACAUGAGGAUCACCCAUGUAGAAGGUGUUAUGC [Eternabot (L2) Solution 56] (Eterna round: R97, puzzle: Exclusion 2) | 0.0581 µM | 0.0655 µM | – | –
21 | AGUCGUAGACAGGAUAUGCGGCUAAUAAAUAAAGCAGAAGGGUCUACUUGAGGAUCACCCAAGUGGGCGGUCAA [jl-ex6-4.21 ViennaUCT mod] (Eterna round: R97, puzzle: Exclusion 6) | 0.186 µM | 0.0518 µM | – | –
22 | UAACAUGUAGAAGGAUAUCUGCACGAUUAGUGCAGAGAAGGUCUAACAUGAGGAUCACCCAUGUAGAUCAUUAAUUAAUUAAUU [ENG1/8-B1] (Eterna round: R96, puzzle: Exclusion NG 1) | 0.0152 µM | 0.0124 µM | – | apparent KD of MS2 coat protein [1]: 0.00843 µM
23 | GUAAUCUUAGGAUAUUUACGGGUCGACAUGAGGAUCACCCAUGUACCCACGUAGGCCUGAGAAGAAGGAAGAUGAC [EX5 C.24] (Eterna round: R97, puzzle: Exclusion 5) | 0.0221 µM | 0.0145 µM | – | –
24 | GCUUGUGGGCAAGGAUAUCCUACGCUGUUCUGGUUCGUGUCUGUCACAUGAGGAUCACCCAUGUGGGAGAAGGUGCCUUUGGUG [Design 63] (Eterna round: R96, puzzle: Exclusion NG 2) | 0.0137 µM | 0.0162 µM | – | apparent KD of MS2 coat protein [1]: 0.0127 µM
25 | UCCUUACUGGUCAGGAUAUACAUUCGCGAGUGGGUGUAGAAGGGACAUGAGGAUCACCCAUGUACGUUACAUCC [alecazam54f] (Eterna round: R97, puzzle: Brourd's mod of Exclusion 4) | 0.0183 µM | 0.0205 µM | – | –
26 | CCGAACUCAGGAUAUGCAUGUAUAACAGAGAGAUCCACUAAACAUGAGGAUCACCCAUGUAGAAGGGAGUCGGG [Eternabot (L1) Solution 14] (Eterna round: R97, puzzle: Exclusion 2) | 0.887 µM | 0.365 µM | – | –
27 | GAAAAGGUAGGAUAUACGAAAAAAAAGUGUAGAAAAAAAACACAUGAGGAUCACCCAUGUAGAAGGACCAAAAG [salish99_ex2_r3_069] (puzzle: Exclusion 2) | – | – | 0.0348 µM | apparent KD of MS2 coat protein [2]: 0.027 µM; apparent KD of MS2 coat protein [4]: 0.0326 µM
28 | CUGAGGUAGCGGUCCUAUGACAUGAGGAUCACCCAUGUACCUUGCUUUGAGCUAAUUGCUCGUCUUAUGAUUCUCGG [Mat - Sensor v3 - turn-off var 1 - JL Mod - D45] (puzzle: Sensor v3, turn-off variant 1) | – | – | 0.457 µM | apparent KD of MS2 coat protein [2]: 0.5 µM; apparent KD of MS2 coat protein [4]: 0.479 µM
29 | UAGUAAAAGGUGAGGAUAUCCGCAAUAAAACGUGAGGAGAAGGCACAUGAGGAUCACCCAUGUAGGGUAUCAAA [BmEX4 A.17] (Eterna round: R97, puzzle: Brourd's mod of Exclusion 4) | 0.421 µM | 0.45 µM | – | –
30 | AAAUUGGUAGAGGAUAUUGUACAGGAAACGGUGCGAGAAGGUUGCACAUGAGGAUCACCCAUGUUUAGUUGCGA [EX6 #47] (Eterna round: R97, puzzle: Exclusion 6) | 0.0272 µM | 0.0324 µM | – | –
31 | GAGCCACAUGAGGAUCACCCAUGUGAGGAUAUCAUGCUUCGUAGUAAACUACGAAGUGUGAGAAGGCACAAUGG [Omei Ex1 C5] (Eterna round: R97, puzzle: Exclusion 1) | 0.233 µM | 0.0997 µM | – | –
32 | CAAGCUUUUCCAUUUCUAUACAUGAGGAUCACCCAUGUCCCGAGUUGGGUGAGCACUCUGGUCGUCGUUUCUACCAA [Envele] (Eterna round: R96, puzzle: Sensor v2, turn-off variant) | 0.432 µM | 0.278 µM | – | apparent KD of MS2 coat protein [1]: 0.181 µM
33 | AGAUGGCGAGGAUAUACAUGAGGAUCACCCAUGUGAAGAGAUAAAGUGAGGAAGAAAAGUAGAAGGCGCUGUCA [Mat - Exclusion 3 - Mod of Salish D24] (puzzle: Exclusion 3) | – | – | 0.0514 µM | apparent KD of MS2 coat protein [2]: 0.199 µM; apparent KD of MS2 coat protein [4]: 0.0409 µM
34 | CAUCAGAUAGGAUAUACAGGCCCGUCUUUAUAUUGAUCCCGACAUGAGGAUCACCCAUGUAGAAGGAUCAGAUG [Mod 27 - Jieux - Exclusion 2] (Eterna round: R97, puzzle: Exclusion 2) | 0.0212 µM | 0.0161 µM | – | –
35 | UAUUAACAUGUAGGAUAUCUGCACGAUUAGUGCAGAGAAGGACAUGAGGAUCACCCAUGUAGAUCAUAAUAAUUUAAUUUAAUU [ENG1/6-D1] (Eterna round: R96, puzzle: Exclusion NG 1) | – | – | – | apparent KD of MS2 coat protein [1]: 0.106 µM
